Measurements taken from patent publication US20170037117A1, “COMPOSITIONS AND METHODS FOR TREATING METABOLIC DISORDERS” (Salk Institute for Biological Studies, priority 2014, published 2017).

Assays:
[1] = target: human α-CGRP K35A (19-37) (human); test: Biacore SPR 25 C, Fab over peptide on SA chip; ratio to parent 19-37
[2] = target: human α-CGRP fragment 25-37 (human); test: Biacore, 25 C, Fab over biotin-fragment on SA chip
[3] = target: human α-CGRP fragment 19-37 (human); test: Biacore SPR 25 C, Fab over N-biotinylated peptide on SA chip; mean ± SD of two measurements on different chips
[4] = target: human α-CGRP fragment 25-37 (human); test: as above
[5] = target: human α-CGRP 1-37 (WT) (human); test: Biacore, 37 C, Fab over biotin-CGRP on SA chip
Sequence of human α-CGRP 1-37 (WT) (human) (peptide, as listed by the source): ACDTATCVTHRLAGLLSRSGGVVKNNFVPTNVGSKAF

rat α-CGRP (1-37) (rat) = test: Biacore, 37 C, Fab over biotin-CGRP on SA chip
Sequence of rat α-CGRP (1-37) (rat) (peptide, as listed by the source): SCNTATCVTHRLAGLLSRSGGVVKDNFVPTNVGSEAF

[6] = target: human α-CGRP 1-37 (WT) (human); test: Biacore SPR 25 C, Fab over N-biotinylated peptide on SA chip
[7] = target: human α-CGRP 1-37 (WT) (human); test: Biacore, 25 C, Fab over biotin-CGRP on SA chip
[8] = target: human α-CGRP V32A (25-37) (human); test: Biacore SPR 25 C, Fab over peptide on SA chip; ratio to parent 25-37
[9] = target: human α-CGRP V28A (25-37) (human); test: as above
[10] = target: human α-CGRP S34A (25-37) (human); test: as above
[11] = target: human α-CGRP G33A (25-37) (human); test: as above
[12] = target: human α-CGRP T30A (25-37) (human); test: as above
[13] = target: human α-CGRP F27A (25-37) (human); test: as above
[14] = target: human α-CGRP P29A (25-37) (human); test: as above
[15] = target: human α-CGRP N31A (25-37) (human); test: as above

Row | KD (mutant/parent) [1] | fold lower affinity than to full length human α-CGRP [2] [fold] | Kd [3] [nM] | Kd [4] [nM] | Kd [5] [nM] | Kd (rat α-CGRP (1-37) (rat)) [nM] | Kd [6] [nM] | Kd [7] [nM] | KD (mutant/parent) [8] | KD (mutant/parent) [9] | KD (mutant/parent) [10] | KD (mutant/parent) [11] | KD (mutant/parent) [12] | KD (mutant/parent) [13] | KD (mutant/parent) [14] | KD (mutant/parent) [15] | Substance
1 | 0.3 | 6 | 52 | 296 | 139 | 3.4 | 60.5 | 61 | 0.9 | 0.8 | 0.8 | 1.3 | 0.2 | 0.8 | 0.2 | 0.3 | anti-CGRP monoclonal antibody 4901, Fab fragment
2 |  |  |  |  |  |  |  |  |  | 1 |  |  |  | 1 |  |  | murine anti-CGRP monoclonal antibody 7E9, Fab fragment
